This data set can be described thus: yeast display, Sf9 membrane polyspecificity reagent, FACS + sequencing; frameworks hold sequencing errors. The essentials:
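A nanobody's polyreactivity label depends on the gate it was sorted from. Yeast display cells were stained with 10% biotinylated, detergent-solubilized Sf9 membrane reagent for 1 hour at 4 °C, enriched on streptavidin microbeads and sorted by FACS. The low and high (top ~1%) gates were set on anti-HA fluorescence for expression and streptavidin fluorescence for reagent binding.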
In the case of “QVQLVESGGGLVQAGGSLRLSCAACGSIFRPNAMGWYRQAPGKERELVAAITWIAGGTYYADSVKGRFTISRDNAKNTVYLEMNSLKPEDTAVYYCAARWYFQTAVGRYYHYDYWGQGTQVTVSS”, the “polyreactivity (PSR sort gate)” value is on record as “high polyreactivity”.

Turning to “QVQLVESGGGLVQAGGSLRLSCAASGRIFSFNGMGWYRQAPGKERELVAAITTSGGRTYYADSVKGRFTISRDNAKNTVYLQINSLKPEDTAVYYCAAELAWEYYWGQGTQVTVSS”, the “polyreactivity (PSR sort gate)” value is “low polyreactivity”.

As to “QVQHVESGGGLVQAGGRLRLSCAASGSIFAWYARGWYIQAPGKEREVVADITHSGGSTYYADSLKGRFTISRDNAKNTVYLQMYSLKPEDTAVSYCVDYWYNDLQSGWEDDYWGQGTQVTVAS”, the “polyreactivity (PSR sort gate)” value is “low polyreactivity”.

On to “QVQLVESGGGLVQAGGSLRLSCAASGFIFDYNVMGWYRQAPGKKGSWVAAISWSGGSTYYADSVKGRFTISRDNAKNTVYLQMNSLKPEDTAVYYCAARGTSTYRGTGRYDYWGQGTQVTVSS”, for which the “polyreactivity (PSR sort gate)” value is on record as “high polyreactivity”.

For the sequence “QVQLVESGGGLVQAGGTLRFSCAATGSIFDPYARGWYRQAPGKEREFVAAITYTGGDTHYADSVKGRFSISRDKAKNTVYLQLNSLKPEDSAVYYFAAVYYRGIQSYDYWGQGTQVTVSS”, the “polyreactivity (PSR sort gate)” value is listed as “low polyreactivity”.

As for “QDQLVETGGGLVQAGVSLRISCAASGSTFYYNAMGWYRQAPGKERELVAAITWSGDSTYYADSVKGRFTISRDNAKNTVYLQMNSLKPEDTAVYYCNAEYYDYFDYVSDYWGQGTQVTVSS”, the “polyreactivity (PSR sort gate)” value is on record as “low polyreactivity”.

“QVQLVESGGGLVQAGGSLRLSCAASGYIFHLYAMGWYRQAPGKERELVAAISSGGRTYYADSVKGRFTISRDNAKNTVYLQMNSLKPEDTAVYYCAVRSYVNTAVGYYYWGQGTQVTVSS”: the “polyreactivity (PSR sort gate)” value was “high polyreactivity”.

“QDQLEESGGGLDQAGCSLRLSCAASGFTFNYYTMGWYRQAPVKERELVAVITGGGGSTYYADSVKGRFTISRDNAKNTVYLQMNSLKPEDTAVYYCAAYWGGWSFRYLYDYWGQGTQVTGSS”: the “polyreactivity (PSR sort gate)” value is reported as “high polyreactivity”.

As for “QVQLVESGGGLVQAGGSLRLSCAASGSTFESNAMGWNRQAPGKERDLVASISGSGGSTFYADSVKGSFTISRDNAKNTVYLQMNILKPEDTGVYYCAAYKEPYYEEYGYWGQGTQVTVSS”, the “polyreactivity (PSR sort gate)” value is “low polyreactivity”.

With “QLQLVESGGGLVQAGGSLRLSSAASGITFRGYTMGWYRPAPGKERELVARIRSSDGSTYYADSVKGRFTISRDNAKNTVYLQMNSLKPEDTAVYYCNDDRRGRALKYYSWGQGTQVTVSS”, the “polyreactivity (PSR sort gate)” value was “low polyreactivity”.

With “QVQLVESGGGLVQAGGSLRLICAASGRIFDFYAMGWYRQAPGKDRELVAAITTGDSTYYADSVKGRFTISRDNAKNTVYLQMNSLKPEDTAVYDCAAVGHGGWDGDDYWGQGTQVTVSS”, the “polyreactivity (PSR sort gate)” value is “low polyreactivity”.

Turning to “QVQLVESGGGLVQAGGSLRLICAASGSTFEYYAMGWYRPAPGKERELVAAINGIGGSTTYADSVKGRFTISRDNAKNTVYLQMNSLKPEDSAVYYCNADVARSKSQASAYDYWGQGTQVTVSS”, the “polyreactivity (PSR sort gate)” value is reported as “low polyreactivity”.

Take “QVQLVESGGGLVQAGGSLRLSCAASGSIYPNAMGWNRQAPGKERELVAAIRRSSGSTYADSVKGRFTISRDNAKNTVYLQMNSLKPEDTAVYYCAAEWFAQPVGYDYWGQGTQVTVSS”: the “polyreactivity (PSR sort gate)” value is “high polyreactivity”.

Take “QVQLVESGGGLVQAGGSLRLSCASSGSIFLINAMGWYRQAPGKERELVAAISRSGGRTYYADSVKGRFTISRDNAKNTVYLQMNSLKPEDTAVYYCAVPSIYYAGRAYDYWGQGTQVTVSS”: the “polyreactivity (PSR sort gate)” value is listed as “high polyreactivity”.

Take “QVQLVESGGGLVQAGGSLRLSCAASGFTFFLNAMGWYRQAPGKERELVAAINRSGGSTYYADSVKGRFTISRDNAKNTVYLQMNSLKPEDTAVYYCATYSFWHYAYDYWGQGTQVTVSS”: the “polyreactivity (PSR sort gate)” value is reported as “low polyreactivity”.

With “QVQLVESGGGLVQAGGSLRLSCAASGRIFAYYAMGWNRQAPGKERELVAAISRSGVSTYYADSVKGRFTISRDNAKNTVYLQRNSLKPEDTAVYYCAARWRSGFTSGDYWGQGTLVTVSS”, the “polyreactivity (PSR sort gate)” value was “low polyreactivity”.

With “QVQLVESGGGLVQAGGSLRLSSAASGFIFVGNAMGWYRQAPGKERELVATISGADSTNYADSVKGRFTISRDNAKNTVYLQMNSLKPEDTAVYDCAKEGYSYFDGNYGPYRYDYWGQGTQVTVSS”, the “polyreactivity (PSR sort gate)” value is “low polyreactivity”.

“QVQLVESGGGLVQAGGSLRLSCAASGFIFYRNAMGWYRQAPGKERELVAAISGSGGRTYYADSVNGRFTISRDNAKNTVYLQMNSLNPEDTAVYYCNAGLLYRGEYDYWGQGTQVTVSS”: the “polyreactivity (PSR sort gate)” value is listed as “high polyreactivity”.

With “QVQLVESGGGLVQAGGSLRLSSAASGSTIFLYDMGWYRQAPGKERELVAAITISGGSTYYADSVKGRFTISRDNAKNTVYLQMNSLKPEDTAVYYCAVRTYRFRHWPKYDYWGQGTQVTVSS”, the “polyreactivity (PSR sort gate)” value was “high polyreactivity”.

With “QVQLVESGGGLVQAGGSLRLSCAASGRTFRPYAMGWYRQAPGKERELVAAITSCGSTYYADSVKGRFTISRDNAKNTVYLQMNSLKPEDTAVYYCNAKYYYQPPYDYWGQGTQVTVSS”, the “polyreactivity (PSR sort gate)” value is recorded as “low polyreactivity”.

For “QVQLVESGGGLVQAGGSLRLSCAASGIFSYYAMGWYRQAPGKERELVAAISSSGGSTYYADSVKGRFTISRDNAKNTVYLQMNSLKPEDTAVYYCNVRNYYNDYYYWGQGTQVTVSS”, the “polyreactivity (PSR sort gate)” value is given as “high polyreactivity”.

For “QVQLVESGGGLVQAGCSLRLSCAASGRTFYFYTMGWYRQAPGKVRELVAAISWSGGSTYYADSVKGRFTISRDNAKYTVYLQMNSLKPEDTAVYYCNAVFFKGSESGLDYWGQGTQVTVSS”, the “polyreactivity (PSR sort gate)” value is “high polyreactivity”.

Turning to “QVQHVDSGGGLVQAAGSLRLSCAASGRTFGVYAMGWYRQAPGKERELVATITSVDRTNYADSVKGRFTISRENAKNTVYLLMNSLKPDDTAVYYCADVGRGPRYFYWGQGTQVTVSS”, the “polyreactivity (PSR sort gate)” value is on record as “high polyreactivity”.

“QVQVVESGGGLVQAGGSLRLSCAASGRIFTGYAMGWYSQAPGTERELVAAISRGGSTNYADSVKGRFTISRDNAKNTVYLQMNSLKPEDTAVYYCAAGVHWDRGDYWGQGTQVTVSS”: the “polyreactivity (PSR sort gate)” value is listed as “low polyreactivity”.

Take “QVHLVESGGGLVQAGGSLRLSCAASGRTLYCYAMGWYRQAPGKERELVASIRSGGSTNYADSVKGRFTISRDNAKNTVYLQMNSLKPEVTAVYYCNTGSRLDRVDSWGQGTQVTVSS”: the “polyreactivity (PSR sort gate)” value was “low polyreactivity”.

On to “QVQLVESGGGLVQAGGSLRLSCAASGSIFYRYAMGWYRQAPGKERELVADISSGGGTSYADSVKGRFTISRDNAKNTVYLQMNSLKPEDTAVYYCAAELYYWTYVRFDYWGQGTQVTVSS”, for which the “polyreactivity (PSR sort gate)” value is listed as “low polyreactivity”.

For the sequence “QVQLVESGGGLVQAGGSLRLSCAASGFIFPTYAMGWYRQATGKERELVAAISYRGGITSYADSVKGRFTISRDNAKNTVYLQMNSLKPEDSAVYYCAARGAWGYEYWGQGTQVTVSS”, the “polyreactivity (PSR sort gate)” value is given as “low polyreactivity”.

On to “QVQLVESGGGLVQAGGSLRLSCAASGSTFPVYAMGWYRQAPGKERELVAAITSGGSTYYADSVKGRFTISRDNAKNTVYLQMNSLKPEDTAVYYCAAEDSSPAYNHWGHGTQVTVSS”, for which the “polyreactivity (PSR sort gate)” value is recorded as “low polyreactivity”.

In the case of “QVQLVESVGGLVQAGGSLRFSCAASGRIFKWYAMGWYRQAPGKEREFVAGIRWGGGRTHYADSVKGRFTISRDNAKNTVYLQMNSLKPEDTAVYYCAADNRGNTVYYRNYYWGQGTQVTVSS”, the “polyreactivity (PSR sort gate)” value is “high polyreactivity”.

Turning to “QVQLVESGGGLVQAGGRLGLSCAASGRSFPWYTMGWYRQATGKERELVAAISSSGSTTYYADSVNGRFTISRDNAKITVYLQMNSLKPEDTAVYYCNKADPPEYDYWGQGTPVTVSS”, the “polyreactivity (PSR sort gate)” value is listed as “high polyreactivity”.

Regarding “QVQLVESGGGLVQAGGSLRLSCAASGFTLAGYDMGWSRQAPGKERELVATLSTYADSVKGRFTISRDNAKNTVYLQMNSLKPEDTAVYYCAKKYVWTHNYWGQGTQVTVSS”, the “polyreactivity (PSR sort gate)” value is on record as “low polyreactivity”.

As for “QVQLVESGGGLVQAGGSLRLSCAASGSIFDYYAMGWYRQAPGKERELVAAISTSTSSTYYADSVKGRFTISRDNAKNTVYFQMNSLKPEDTAVYYCAAEGESQPESPGYDYWGQGTQVTVSS”, the “polyreactivity (PSR sort gate)” value is reported as “low polyreactivity”.

Take “QVQLVESGGGLVQAGGSLRLSWAASGSTFAYNDMGWYRQAPGKERELVASITSGGSTNYADSVKGRFTISRDNAKNTVYLQMNSLKPEDTAVYYCAARVRYRFDYWGQGTQVTVSS”: the “polyreactivity (PSR sort gate)” value is on record as “low polyreactivity”.

For “QVQLVESGGGVVQAGGSLSLSCAASGFNFNYYAMGWYRPAPGKERELVAISRGGTTNYADSVKGRFTISRDNAKNTVYLQMNSLKPEDTAVYYCAVTGTYYGYSWQSRYKYDYWGQGTQVTVSS”, the “polyreactivity (PSR sort gate)” value is recorded as “high polyreactivity”.

As to “QVQLEESGGGLVQAGGSLRLSCAASGRIFPYYPMGWYRQAPGKETELVATISGGGSTYYADSVKGRFTISRDNAKNTFYLQMNSLKPEDTAVYYCSARSWLRWASTPQWYRYEYWGQGTQVTVSS”, the “polyreactivity (PSR sort gate)” value is “low polyreactivity”.

Take “QVQLVESGGGLVQAGGSLRLSCAASGGTFYAYAMGWYRQAPGKERELVAAITRSGGRPYYADSVKGRVTISRDNAKNTVYLQMNSLKPEDTEVYYCAADPHHYSGLDYWGQGTHVTVSS”: the “polyreactivity (PSR sort gate)” value is on record as “low polyreactivity”.

Consider “QVQLVESGGGLVQAGGSLRLSCAASGIIFTSNTMGWYRQAPGKEREFVASINWNGSSTYADSVKGRFTISRDNAKNTVYLQMNSLKPEDTAVYYCAAEASPRLYRKYDYWGQGTQVTVSS”, for which the “polyreactivity (PSR sort gate)” value is listed as “low polyreactivity”.

Consider “QVQLVESGGGLVQAGGSLRLSCAASGRTFYYNAMGWYRQAPGKERELVAAISASSGRTYYADSVKGRFTISRDNAKNTVYFPMNSLKPEDTAVYYCANRYGGDYTRGYGYWGQGTQVTVSS”, for which the “polyreactivity (PSR sort gate)” value is listed as “high polyreactivity”.

Take “QVQLVESGGCLVQAGGSLRLICAASGFIFTPYAMGWYRQAPGKERELVAAIRNSDGSTYYADSVKRRFTISRDTAKHSVYLQMNSLKPEDTAVFYCAKRYRGEPGGTYGYWGQGTQVNVSS”: the “polyreactivity (PSR sort gate)” value is given as “high polyreactivity”.

“QVQLVESGGGLVQAGGSLRLSCAASGFTLARYAMGWYRQAPGKERELVAAITKRGGSTYYADSVKGRFTISRDNAKNTVYLQMNSLKPEDTAVYYCATYKRSSHYDYWGQGTQVTVSS”: the “polyreactivity (PSR sort gate)” value is “high polyreactivity”.

Take “QVQLVESGGGLVQAGGSLRLSCAASGSIFRTYAKGWYRQAPGKERELVATITFGGVSTYYADSVKGRFTISRDNAKNTVYLQMNSLKPEDTAVYYCAADVYTRFWRVYRFDYWGQGTQVTVSS”: the “polyreactivity (PSR sort gate)” value is “low polyreactivity”.

For the origin of these results see the nanobody polyreactivity screen of Harvey et al. (2022).
